Test [1] concerns the target T1, Phosphoglycerate mutase 1 (Gpm1), recombinant (C. albicans), P82612.
T1 chain: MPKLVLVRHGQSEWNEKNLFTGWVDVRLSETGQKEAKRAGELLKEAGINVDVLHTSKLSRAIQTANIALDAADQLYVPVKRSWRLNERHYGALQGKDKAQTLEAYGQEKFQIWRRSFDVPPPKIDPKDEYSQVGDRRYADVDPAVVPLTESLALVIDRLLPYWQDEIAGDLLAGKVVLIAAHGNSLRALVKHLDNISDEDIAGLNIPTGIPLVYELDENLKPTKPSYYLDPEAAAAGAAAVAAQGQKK
The test can be described thus: SPR. Conditions: remark: other sources report otherwise.

In test [2] the target is T2, enolase (Eno1) (C. albicans (endogenous in strain ATCC 10231)), P30575.
T2 chain: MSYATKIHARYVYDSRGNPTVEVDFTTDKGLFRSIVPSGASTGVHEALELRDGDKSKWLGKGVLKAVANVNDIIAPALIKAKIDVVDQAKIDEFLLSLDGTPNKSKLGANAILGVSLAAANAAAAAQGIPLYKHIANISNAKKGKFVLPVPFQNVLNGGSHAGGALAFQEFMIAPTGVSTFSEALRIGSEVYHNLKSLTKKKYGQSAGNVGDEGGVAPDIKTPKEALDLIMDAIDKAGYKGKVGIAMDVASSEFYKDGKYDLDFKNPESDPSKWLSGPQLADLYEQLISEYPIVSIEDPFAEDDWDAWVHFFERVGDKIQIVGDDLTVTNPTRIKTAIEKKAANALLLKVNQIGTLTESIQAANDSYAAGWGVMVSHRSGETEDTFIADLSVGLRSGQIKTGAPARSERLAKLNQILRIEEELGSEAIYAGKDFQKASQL
The test can be described thus: SPR. Conditions: remark: other sources report otherwise.

B1: lactotransferrin (LF), P02788 20-710 (natural protein)
chain: GRRRSVQWCAVSQPEATKCFQWQRNMRKVRGPPVSCIKRDSPIQCIQAIAENRADAVTLDGGFIYEAGLAPYKLRPVAAEVYGTERQPRTHYYAVAVVKKGGSFQLNELQGLKSCHTGLRRTAGWNVPIGTLRPFLNWTGPPEPIEAAVARFFSASCVPGADKGQFPNLCRLCAGTGENKCAFSSQEPYFSYSGAFKCLRDGAGDVAFIRESTVFEDLSDEAERDEYELLCPDNTRKPVDKFKDCHLARVPSHAVVARSVNGKEDAIWNLLRQAQEKFGKDKSPKFQLFGSPSGQKDLLFKDSAIGFSRVPPRIDSGLYLGSGYFTAIQNLRKSEEEVAARRARVVWCAVGEQELRKCNQWSGLSEGSVTCSSASTTEDCIALVLKGEADAMSLDGGYVYTAGKCGLVPVLAENYKSQQSSDPDPNCVDRPVEGYLAVAVVRRSDTSLTWNSVKGKKSCHTAVDRTAGWNIPMGLLFNQTGSCKFDEYFSQSCAPGSDPRSNLCALCIGDEQGENKCVPNSNERYYGYTGAFRCLAENAGDVAFVKDVTVLQNTDGNNNEAWAKDLKLADFALLCLDGKRKPVTEARSCHLAMAPNHAVVSRMDKVERLKQVLLHQQAKFGRNGSDCPDKFCLFQSETKNLLFNDNTECLARLHGKTTYEKYLGPQYVAGITNLKKCSTSPLLEACEFLRK
modifications: here or on the partner: NHS-fluorescein label in flow cytometry; sulfo-SBED crosslinker in the cross-linking experiment
In the case of B1, the figures for the dissociation constant Kd in test [1] and in test [2] were 21.4 nM and 72.2 nM, respectively.

B2: human neutrophil elastase (HNE), P08246 30-267 (enzyme)
chain: IVGGRRARPHAWPFMVSLQLRGGHFCGATLIAPNFVMSAAHCVANVNVRAVRVVLGAHNLSRREPTRQVFAVQRIFENGYDPVNLLNDIVILQLNGSATINANVQVAQLPAQGRRLGNGVQCLAMGWGLLGRNRGIASVLQELNVTVVTSLCRRSNVCTLVRGRQAGVCFGDSGSPLVCNGLIHGIASFVRGGCASGLYPDAFAPVAQFVNWIDSIIQRSEDNPCPHPRDPDPASRTH
modifications: here or on the partner: sulfo-SBED crosslinker in the cross-linking experiment; in flow cytometry preincubated or not with 10 µM N-(Methoxysuccinyl)-Ala-Ala-Pro-Val-chloromethyl ketone
On to B2, for which, in test [2], the Kd (as a rule, the constant that tells how readily two partners part at equilibrium) worked out at 36.1 nM.

The values are drawn from paper PMC8534323.
